In patent US20260234242A1 (HAINAN SIMCERE ZAIMING PHARMACEUTICAL, published 2026):

B1: NOV0712 (antibody, human IgG1, kappa, V domains shown)
VH: QVQLLESGGGLVQPGGSLRLSCAASGFTFSSHGMHWVRQAPGKGLEWVSVISGSGSNTGYADSVKGRFTISRDNSKNTLYLQMNSLRAEDTAVYYCARQWGSYAFDSWGQGTLVTVSS
VL: DIQMTQSPSSLSASVGDRVTITCRASQSISSYLNWYQQKPGKAPKLLIYAVSTLQSGVPSRFSGSGSGTDFTLTISSLQPEDFATYYCQQSGTFPPTTFGQGTKVEIKR
notes: Positive control, variable regions from WO2018212136A1; also called positive control anti-human CDH6 antibody
B2: CHI-CDH6-12 (antibody, human IgG1, kappa, V domains shown)
VH: EVNLVESGGGLVQPGDSLTLSCSASGFTFTDYYMSWVRQFPGKALEWLALIRNKANSYTTEYSASVKGRFTISRDNSQSILYLQMNALRAEDSATYYCARDSYYSHDGFAYWGQGTLVTVSA
VL: DIVLTQSPASLAVSLGQRATISCRASKSVSTSSYTYMHWYQQKPGQPPKLLIKFASYLESGVPARFSGSGSGTDFTLNIHPVEEEDAATYYCQHSREFPFTFGTGTKLEIKR
notes: also called CH1-CDH6-12; chimeric antibody of murine CDH6-12
B3: CHI-CDH6-13 (antibody, human IgG1, kappa, V domains shown)
VH: DVQLQESGPGLVKPSQSLSLTCSVTGYSITKDSYWNWIRQFPGSKLEWMGFISYDGSRHYNPSLKNRISITRDTSKNQFFLQLNSVTTEDTATYYCARRDYADYWGQGTTLTVSS
VL: QIVLTQSPALMSAFPGEKVTMTCSATSSVSYIYWYQQKPRSSPKPWIYLTSNLASGVPARFSGSGSGTSYSLTINSLEAEDAATYYCQQWSSIPYTFGGGTKLEIKR
notes: also called chimeric antibody of murine CDH6-13
B4: CHI-CDH6-14 (antibody, human IgG1, kappa, V domains shown)
VH: QIQLQQSGPELVKPGTSVKISCKASGYTFTDNYINWVRQRPGQGLEWIGWIYPGTGNSYYNEKFKGKATLTVDTSSSTAYMQFSSLTSEDSAVYLCASSYGDSFDYWGQGTTLTVSS
VL: DIQMTQTTSSLSASLGNRVTISCRASQDIRNYLNWYQQKPDGTFKLLISYTSRLHSGVPSRFSGSGSGTDYSLTVSNLEPEDIATYYCQQYSQLPWTFGGGSRLEIKR
notes: also called CHI-hCDH6-14; CH1-CDH6-14
B5: CHI-CDH6-11 (antibody, human IgG1, kappa, V domains shown)
VH: QIQLQQSGPELVKPGASVRISCKASGYTFTDYYITWVKLRPGQGLEWIGWIYPGSVNIKYNEKFKGKATLTVDTSSSTAYMQLNSLTSEDSAVYFCARGGYSWFPYWGQGTLVTVSA
VL: NIVMTQSPKSMSMSVGERVTLSCKASENVHTYVSWYQQKPEQSPKLLFYGASTRNTGVPDRFTGSGSATDFTLTISSVQAEDLADYYCGQSYSYPYTFGSGTKLEIKR
notes: also called chimeric antibody of murine CDH6-11
B6: DS-H01L02 (antibody, human IgG1, kappa, V domains shown)
VH: EVQLVQSGAEVKKPGASVKVSCKASGYTFTRNFMHWVRQAPGQGLEWMGWIYPGDGETEYAQKFQGRVTITADTSTSTAYMELSSLRSEDTAVYYCARGVYGGFAGGYFDFWGQGTLVTVSS
VL: DIQMTQSPSSLSASVGDRVTITCKASQNIYKNLAWYQQKPGKAPKLLIYDANTLQTGVPSRFSGSGSGSDFTLTISSLQPEDFATYFCQQYYSGWAFGQGTKVEIKR
notes: as for B1

Experiments:
[1] = target: T1, human CDH6 on tumor cells (OVCAR3 cells, PA-1 cells) (human, UniProt P55285 54-790); assay: FACS, PA-1 cells
T1 sequence: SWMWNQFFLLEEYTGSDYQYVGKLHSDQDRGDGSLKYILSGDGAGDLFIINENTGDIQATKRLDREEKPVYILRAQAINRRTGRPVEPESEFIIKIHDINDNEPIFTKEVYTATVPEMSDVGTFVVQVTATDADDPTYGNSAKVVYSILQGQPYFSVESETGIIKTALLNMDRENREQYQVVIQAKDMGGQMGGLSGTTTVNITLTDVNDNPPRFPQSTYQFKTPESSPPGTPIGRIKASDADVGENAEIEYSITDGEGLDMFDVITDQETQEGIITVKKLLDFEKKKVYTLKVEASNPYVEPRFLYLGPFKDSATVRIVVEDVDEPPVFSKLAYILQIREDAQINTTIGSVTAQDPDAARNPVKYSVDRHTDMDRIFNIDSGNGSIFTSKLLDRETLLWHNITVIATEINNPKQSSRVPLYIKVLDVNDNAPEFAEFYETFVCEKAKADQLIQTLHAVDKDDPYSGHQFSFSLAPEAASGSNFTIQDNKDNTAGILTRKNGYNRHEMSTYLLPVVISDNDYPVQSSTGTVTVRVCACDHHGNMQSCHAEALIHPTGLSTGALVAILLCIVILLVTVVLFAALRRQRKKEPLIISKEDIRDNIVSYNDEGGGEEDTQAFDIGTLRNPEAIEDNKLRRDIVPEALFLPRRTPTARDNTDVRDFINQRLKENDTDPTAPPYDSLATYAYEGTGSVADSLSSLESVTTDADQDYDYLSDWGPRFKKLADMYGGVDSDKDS
Procedure: (§1) OVCAR3 cells with high expression of CDH6 and PA-1 cells with moderate expression of CDH6 were used to detect the binding activity of the antibodies to the cells. […] The cells were washed once with PBS, counted, resuspended to 2×10⁶ cells/mL in an FACS buffer (PBS+2% FBS), and then added to a 96-well plate at 50 μL/well. The chimeric antibodies were diluted with FACS buffer (PBS+2% FBS) and added to the 96-well plate at 50 μL/well, and the plate was incubated at 4° C. for 1 h. […] The dilution was added to the 96-well plate at 50 μL/well, and the plate was incubated at 4° C. for 1 h. After the plates were centrifuged and washed 2 times with PBS, the cells were resuspended in an FACS buffer. The mean fluorescence intensity (MFI) was measured using FACS Canton II (BD). Analysis was performed by the GraphPad Prism software, data were fitted, and EC50 values were calculated. The chimeric antibodies tested had strong binding to both OVCAR3 cells and PA-1 cells.

[2] = target: T1, human CDH6 on tumor cells (OVCAR3 …); assay: FACS, OVCAR3 cells
Procedure: as §1

[3] = target: T2, monkey CDH6 protein (cynoCDH6 ECD-his) (monkey (cyno), UniProt A0A2K5TW62 19-615); assay: ELISA, coated antigen
T2 construct: range 19-615; also called Cyno CDH6-his; not shown: his tag
T2 sequence: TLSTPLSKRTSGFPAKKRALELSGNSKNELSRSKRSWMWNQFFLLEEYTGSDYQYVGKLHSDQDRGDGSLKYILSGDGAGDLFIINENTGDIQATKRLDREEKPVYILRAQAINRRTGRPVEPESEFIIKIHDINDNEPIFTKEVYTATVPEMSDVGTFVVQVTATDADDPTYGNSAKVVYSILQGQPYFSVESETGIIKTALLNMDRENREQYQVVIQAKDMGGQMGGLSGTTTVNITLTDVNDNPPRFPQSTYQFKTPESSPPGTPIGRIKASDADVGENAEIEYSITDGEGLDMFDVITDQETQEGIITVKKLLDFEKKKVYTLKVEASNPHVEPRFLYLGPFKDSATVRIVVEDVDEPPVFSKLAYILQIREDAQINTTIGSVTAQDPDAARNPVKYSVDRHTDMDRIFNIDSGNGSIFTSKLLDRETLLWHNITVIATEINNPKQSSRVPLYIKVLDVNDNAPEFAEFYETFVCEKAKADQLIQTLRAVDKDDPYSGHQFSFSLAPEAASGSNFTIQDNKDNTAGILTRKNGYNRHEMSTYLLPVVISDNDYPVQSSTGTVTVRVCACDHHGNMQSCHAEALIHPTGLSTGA
Procedure: Human CDH6 protein (hCDH6 ECD-his, conventionally synthesized), monkey CDH6 protein (cynoCDH6 ECD-his, conventionally synthesized; the cynoCDH6 ECD sequence was derived from Uniprot #A0A2K5TW62 (19-615)), and murine CDH6 protein (mCDH6 ECD-his, conventionally synthesized; the mCDH6 ECD sequence was derived from Uniprot #P97326 (19-615)) were diluted with PBS to a final concentration of 1 μg/mL, and added to a 96-well ELISA plate at 100 μL/well. The plate was incubated at 4° C. overnight. The next day, the plate was washed 3 times with a plate washing solution (PBS+0.01% (v/v) Tween 20), and a blocking buffer (PBS+0.01% (v/v) Tween 20+2% (w/w) BSA) was added for blocking at room temperature for 2 h. The blocking buffer was discarded, and the plate was washed 3 times. The chimeric antibodies were diluted with 1% BSA+PBS (purchased from Cytiva, Cat. No. SH30264.01) and added to the 96-well plate at 50 μL/well. After incubation at 37° C. for 2 h, the plate was washed 3 times with a plate washing solution. […] The plate was incubated at 37° C. for 1 h and then washed 5 times with a plate washing solution. A TMB substrate (purchased from Seracare, Cat. No. 5120-0077) was added at 50 μL/well and incubated at room temperature for 10 min, then a stop solution (1.0 N HCl) was added at 50 μL/well. OD450 nm values were read using a microplate reader (Biotek). Analysis was performed by the GraphPad Prism software, data were fitted, and EC50 values were calculated. The chimeric antibodies tested all had strong binding to the human CDH6 protein, the monkey CDH6 protein, and the murine CDH6 protein.

Row | Binder | EC50 [1] | Max MFI [1] | EC50 [2] | Max MFI [2] | EC50 [3] | Max OD450 [3]
1 | B1 | 1.46 nM | 3600 MFI | 1.92 nM | 11500 MFI | 0.039 nM | 2.44 OD450
2 | B2 | 2.27 nM | 3150 MFI | 2.22 nM | 12500 MFI | 0.044 nM | 2.45 OD450
3 | B3 | 1.97 nM | 4440 MFI | 2.08 nM | 17600 MFI | 0.017 nM | 2.72 OD450
4 | B4 | 0.26 nM | 5410 MFI | 0.43 nM | 15700 MFI | 0.039 nM | 2.55 OD450
5 | B5 | 1.78 nM | 4690 MFI | 2.14 nM | 14500 MFI | 0.032 nM | 2.32 OD450
6 | B6 | 1.09 nM | 1880 MFI | 0.8 nM | 9730 MFI | 0.103 nM | 2.18 OD450
